According to article PMC7967050 (2021):

Biological target: Recombinant human CD38 extracellular domain (amino acids 43–300, hCD38-ECD) (human, UniProt P28907 43-300, biotin (EZ-Link NHS-PEG4-biotin) for panning and for capture on the SA biosensor; not said for the cross-linking)
Experiment: BLI

B1: anti-CD38 scFv antibody RP02 (scFv, V domains shown)
VH: PAQLVESGPGLVKPSGTLSLTCAVSGGSISSSNWWSWVRQPPGKGLEWIGEIYHSGSTNYNPSLKSRVTISVDKSKNQFSLKLSSVTAADTAVYYCAREDYYYYMDVWGKGTTVTVQS
VL: QSVLTQPPSVSAAPGQKVTISCSGSSSNIGNNYVSWYQQLPGTAPKLLIYDNNKRPSGIPDRFSGSKSGTSATLGITGLQTGDEADYYCGTWDSSLSAGVFGGGTKLTVL
  koff: 0.0034 s⁻¹

B2: high-affinity anti-CD38 antibody 028 (scFv) (scFv, V domains shown)
VH: QVQLVQSGAEVKKPGSSVKVSCKAFGGTFSSYAISWVRQAPGQGLEWMGRIIRFLGIANYAQKFQGRVTLIADKSTNTAYMELSSLRSEDTAVYYCAGEPGERDPDAVDIWGQGTMVTVSS
VL: DIQMTQSPSSLSASVGDRVTITCRASQGIRSWLAWYQQKPEKAPKSLIYAASSLQSGVPSRFSGSGSGTDFTLTISSLQPEDFATYYCQQYNSYPLTFGGGTKVEIK
  koff: 0.00012 s⁻¹
